Results reported in PMC8105298.

Molecular target: p62 (UniProt Q13501)
Test: co-IP of stathmin-GFP with Flag-p62
Conditions: reference: wild type stathmin-GFP; sites S63

binding against the reference: weaker
Substance: stathmin (from UniProt P16949) S63A stathmin-GFP
